Patent publication US7572764B2, “Uses of chemically-modified cholinesterases for detoxification of organophosporus compounds” (priority 2001, dated 2009)

Test: Clearance experiments in mice, pharmacokinetic profiles
Conditions: for MRT: mean residence time; for MRT / pharmacokinetic behavior after modification by PEG versus non-modified enzyme / circulatory residence time (in words): mice
Description: The pharmacokinetic profiles of non-modified and various preparations of PEG-modified AChE were resolved. Clearance experiments in mice (3 to 6 ICR male mice per enzyme sample) and analysis of pharmacokinetic profiles were carried out as described essentially previously [Kronman, C., et al. (1992), Gene 121, 295-304]. The study was approved by the local ethical committee on animal experiments. Mice were injected with the various rHuAChE preparations (40 μg/mouse in 0.2 ml PBS). Residual AChE activity in blood samples was measured and all values were corrected for background hydrolytic activity in the blood (using samples withdrawn 1 hour before performing the experiment). AChE activity values in samples removed immediately after injection were assigned a value of 100% and used for calculation of residual activity. […] This model enables determination of the parameters A and B which represent the fractions of the material removed from the circulation in the first-fast and second-slow elimination phases respectively, and T1/2α and T1/2β which represent the circulatory half-life values of the enzyme in the fast and slow phases. The pharmacokinetic parameters MRT (mean residence time, which reflects the average length of time the administered molecules are retained in the organism) and CL (clearance, which represents the proportionality factor relating the rate of substance elimination to its plasma concentration (CL=dose/area under the concentration-time curve), were independently obtained by analyzing the clearance data according to a noncompartmental pharmacokinetic model using the WinNonlin computer program. The comparative results are set forth in Table 3 below.

B1: FBS-AChE (protein, UniProt P23795 31-613, looked up)
Acetylcholinesterase: EGPEDPELLVMVRGGRLRGLRLMAPRGPVSAFLGIPFAEPPVGPRRFLPPEPKRPWPGVLNATAFQSVCYQYVDTLYPGFEGTEMWNPNRELSEDCLYLNVWTPYPRPSSPTPVLVWIYGGGFYSGASSLDVYDGRFLTQAEGTVLVSMNYRVGAFGFLALPGSREAPGNVGLLDQRLALQWVQENVAAFGGDPTSVTLFGESAGAASVGMHLLSPPSRGLFHRAVLQSGAPNGPWATVGVGEARRRATLLARLVGCPPGGAGGNDTELVACLRARPAQDLVDHEWRVLPQESVFRFSFVPVVDGDFLSDTPEALINAGDFHGLQVLVGVVKDEGSYFLVYGAPGFSKDNESLISRAQFLAGVRVGVPQASDLAAEAVVLHYTDWLHPEDPARLREALSDVVGDHNVVCPVAQLAGRLAAQGARVYAYIFEHRASTLSWPLWMGVPHGYEIEFIFGLPLEPSLNYTIEERTFAQRLMRYWANFARTGDPNDPRDPKAPQWPPYTAGAQQYVSLNLRPLEVRRGLRAQACAFWNRFLPKLLSATDTLDEAERQWKAEFHRWSSYMVHWKNQFDHYSKQDRCSDL
- MRT (noncompartmental model): 1340 min

B2: PEG modified FBS-AChE (conjugate, UniProt P23795 31-613, looked up)
Acetylcholinesterase: B1 Acetylcholinesterase
modifications: PEG
- pharmacokinetic behavior after modification by PEG versus non-modified enzyme: significantly improved

B3: PEG-modified sialidase-treated AChE (conjugate, UniProt P22303 32-614, looked up)
Acetylcholinesterase: EGREDAELLVTVRGGRLRGIRLKTPGGPVSAFLGIPFAEPPMGPRRFLPPEPKQPWSGVVDATTFQSVCYQYVDTLYPGFEGTEMWNPNRELSEDCLYLNVWTPYPRPTSPTPVLVWIYGGGFYSGASSLDVYDGRFLVQAERTVLVSMNYRVGAFGFLALPGSREAPGNVGLLDQRLALQWVQENVAAFGGDPTSVTLFGESAGAASVGMHLLSPPSRGLFHRAVLQSGAPNGPWATVGMGEARRRATQLAHLVGCPPGGTGGNDTELVACLRTRPAQVLVNHEWHVLPQESVFRFSFVPVVDGDFLSDTPEALINAGDFHGLQVLVGVVKDEGSYFLVYGAPGFSKDNESLISRAEFLAGVRVGVPQVSDLAAEAVVLHYTDWLHPEDPARLREALSDVVGDHNVVCPVAQLAGRLAAQGARVYAYVFEHRASTLSWPLWMGVPHGYEIEFIFGIPLDPSRNYTAEEKIFAQRLMRYWANFARTGDPNEPRDPKAPQWPPYTAGAQQYVSLDLRPLEVRRGLRAQACAFWNRFLPKLLSATDTLDEAERQWKAEFHRWSSYMVHWKNQFDHYSKQDRCSDL
modifications: PEG; sialidase-treated
- pharmacokinetic behavior after modification by PEG versus non-modified enzyme: significantly improved

B4: PEG-modified fully sialylated AChE (conjugate, UniProt P22303 32-614, looked up)
Acetylcholinesterase: B3 Acetylcholinesterase
modifications: PEG; fully sialylated
- pharmacokinetic behavior after modification by PEG versus non-modified enzyme: significantly improved

B5: PEG-modified mono-glycosylated AChE (conjugate, UniProt P22303 32-614, looked up)
Acetylcholinesterase: B3 Acetylcholinesterase
modifications: PEG; mono-glycosylated
- pharmacokinetic behavior after modification by PEG versus non-modified enzyme: significantly improved

B6: PEG-modified non-glycosylated AChE (conjugate, UniProt P22303 32-614, looked up)
Acetylcholinesterase: B3 Acetylcholinesterase
modifications: PEG; non-glycosylated
- pharmacokinetic behavior after modification by PEG versus non-modified enzyme: significantly improved

B7: partially desialylated BChE (protein, UniProt P06276 29-602, looked up)
Cholinesterase: EDDIIIATKNGKVRGMNLTVFGGTVTAFLGIPYAQPPLGRLRFKKPQSLTKWSDIWNATKYANSCCQNIDQSFPGFHGSEMWNPNTDLSEDCLYLNVWIPAPKPKNATVLIWIYGGGFQTGTSSLHVYDGKFLARVERVIVVSMNYRVGALGFLALPGNPEAPGNMGLFDQQLALQWVQKNIAAFGGNPKSVTLFGESAGAASVSLHLLSPGSHSLFTRAILQSGSFNAPWAVTSLYEARNRTLNLAKLTGCSRENETEIIKCLRNKDPQEILLNEAFVVPYGTPLSVNFGPTVDGDFLTDMPDILLELGQFKKTQILVGVNKDEGTAFLVYGAPGFSKDNNSIITRKEFQEGLKIFFPGVSEFGKESILFHYTDWVDDQRPENYREALGDVVGDYNFICPALEFTKKFSEWGNNAFFYYFEHRSSKLPWPEWMGVMHGYEIEFVFGLPLERRDNYTKAEEILSRSIVKRWANFAKYGNPNETQNNSTSWPVFKSTEQKYLTLNTESTRIMTKLRAQQCRFWTSFFPKVLEMTGNIDEAEWEWKAGFHRWNNYMMDWKNQFNDYTSKKESCVGL
modifications: partially desialylated
- MRT (noncompartmental model): 160 min

B8: non-treated serum-derived BChE (protein, UniProt P06276 29-602, looked up)
Cholinesterase: B7 Cholinesterase
- circulatory residence time (in words): resides in the circulation for extended periods of time

B9: PEGylated BChE (partially sialylated) (conjugate, UniProt P06276 29-602, looked up)
Cholinesterase: B7 Cholinesterase
modifications: PEG; partially sialylated
- circulatory residence time (in words): significantly increased

B10: AChE-PEG-5000 high ratio (conjugate, UniProt P22303 32-614, looked up)
Acetylcholinesterase: B3 Acetylcholinesterase
modifications: PEG-5000, high ratio
- T1/2[…] (circulatory half-life, fast phase, ICR mice, 40 μg/mouse): 28 ± 5 min
- T1/2β (circulatory half-life, slow phase, ICR mice, 40 μg/mouse): 540 ± 70 min
- A (% of total) (fraction removed in first-fast elimination phase, ICR mice, 40 μg/mouse): 46 ± 3 % of total
- B (% of total) (fraction removed in second-slow elimination phase, ICR mice, 40 μg/mouse): 64 ± 3 % of total
- MRT (noncompartmental model): 740 ± 80 min
- Clearance (noncompartmental model, ICR mice, 40 μg/mouse): 13.2 mL/h/kg
